From publication PMC12394453 (Signal Transduction and Targeted Therapy, 2025)

B1: 14F8 Fab (Fab, V domains shown)
VH: QVQLKESGPGLVAPSQSLSITCTVSGFSLTSYDISWIRQPPGKGLEWLGVIWTGGVTNYNSAFLSRLSISKDNSKSQVFLKMNSLQTDDTAIYYCVREGDWFFDVWGAGTTVTVSS
VL: DVLMTQTPLSLPVSLGDQASISCRSSQSIVHSNGNTYLEWYLQKPGQSPQLLIYKVSNRFSGVPDRFSGSGSGTDFTLKINRVEAEDLGLYYCFQASHVPYTFGGGTKLEIK
notes: also called 14F8 Fab fragment
B2: chimeric antibody 14F8 (variable regions of mouse m14F8 on a human IgG1 constant region backbone) (antibody, V domains shown)
VH: B1 VH
VL: B1 VL
notes: also called Humanized 14F8; m14F8 (mouse parent)

Columns and labels:
Conditions in all cases: both partners purified
[1] = target: NiV-G head domain (crystallisation construct, deglycosylated) (Nipah virus, NP_112027 / Q9IH62 …); assay: crystal structure
[2] = target: deglycosylated NiV-G (N-linked glycans removed with PNGase F) (Nipah virus, Bangladesh isolate …, UniProt Q4VCP5, strain, N-linked glycans removed with PNGase F); assay: SPR; Biacore T200; antibody (0.5 μg/mL in HBS-EP+) […]; association 120 s, dissociation 900 s
[3] = target: T1, HeV-G (wild-type Hendra virus attachment glycoprotein G, soluble recombinant) (Hendra virus, UniProt O89343); assay: SPR
T1 construct: source: Expi-293F, purified (StrepTrap HP)

Binder | binding result [1] | binding result [2] | binding result [3]
B1 | binds |  | 
B2 |  | binds | no binding (tested: 100 nM)
